*1 amine or outer side, *2 acyl side, *3 side chain or, on linkers, in order; H or OH if unused. Side-chain parts run from the residue outwards. The star is where a group is joined. C18 diacid = O=C(O)CCCCCCCCCCCCCCCCC(=O)*; γGlu = O=C(O)[C@H](CCC(=O)[*:2])N[*:1]; Isovaleryl = CC(C)CC(=O)*; Ahx = NCCCCCC(=O)O

Sequences and labels used below:
B1: Compound 114 (peptide)
peptide: Isovaleryl-APAK([Ahx-γGlu-C18 diacid])PEEDATPEEIQRYYVSLRHYYNWLTRQRY-NH2
SMILES: CC[C@H](C)[C@H](NC(=O)[C@H](CCC(=O)O)NC(=O)[C@H](CCC(=O)O)NC(=O)[C@@H]1CCCN1C(=O)[C@@H](NC(=O)[C@H](C)NC(=O)[C@H](CC(=O)O)NC(=O)[C@H](CCC(=O)O)NC(=O)[C@H](CCC(=O)O)NC(=O)[C@@H]1CCCN1C(=O)[C@H](CCCCNC(=O)CCCCCNC(=O)CC[C@H](NC(=O)CCCCCCCCCCCCCCCCC(=O)O)C(=O)O)NC(=O)[C@H](C)NC(=O)[C@@H]1CCCN1C(=O)[C@H](C)NC(=O)CC(C)C)[C@@H](C)O)C(=O)N[C@@H](CCC(N)=O)C(=O)N[C@@H](CCCNC(=N)N)C(=O)N[C@@H](Cc1ccc(O)cc1)C(=O)N[C@@H](Cc1ccc(O)cc1)C(=O)N[C@H](C(=O)N[C@@H](CO)C(=O)N[C@@H](CC(C)C)C(=O)N[C@@H](CCCNC(=N)N)C(=O)N[C@@H](Cc1c[nH]cn1)C(=O)N[C@@H](Cc1ccc(O)cc1)C(=O)N[C@@H](Cc1ccc(O)cc1)C(=O)N[C@@H](CC(N)=O)C(=O)N[C@@H](Cc1c[nH]c2ccccc12)C(=O)N[C@@H](CC(C)C)C(=O)N[C@H](C(=O)N[C@@H](CCCNC(=N)N)C(=O)N[C@@H](CCC(N)=O)C(=O)N[C@@H](CCCNC(=N)N)C(=O)N[C@@H](Cc1ccc(O)cc1)C(N)=O)[C@@H](C)O)C(C)C
B2: Compound 136 (peptide)
peptide: Isovaleryl-APEK([Ahx-γGlu-C18 diacid])PEADATPEELQRYYVALRHYYNWLTRQRY-NH2
SMILES: CC(C)CC(=O)N[C@@H](C)C(=O)N1CCC[C@H]1C(=O)N[C@@H](CCC(=O)O)C(=O)N[C@@H](CCCCNC(=O)CCCCCNC(=O)CC[C@H](NC(=O)CCCCCCCCCCCCCCCCC(=O)O)C(=O)O)C(=O)N1CCC[C@H]1C(=O)N[C@@H](CCC(=O)O)C(=O)N[C@@H](C)C(=O)N[C@@H](CC(=O)O)C(=O)N[C@@H](C)C(=O)N[C@H](C(=O)N1CCC[C@H]1C(=O)N[C@@H](CCC(=O)O)C(=O)N[C@@H](CCC(=O)O)C(=O)N[C@@H](CC(C)C)C(=O)N[C@@H](CCC(N)=O)C(=O)N[C@@H](CCCNC(=N)N)C(=O)N[C@@H](Cc1ccc(O)cc1)C(=O)N[C@@H](Cc1ccc(O)cc1)C(=O)N[C@H](C(=O)N[C@@H](C)C(=O)N[C@@H](CC(C)C)C(=O)N[C@@H](CCCNC(=N)N)C(=O)N[C@@H](Cc1c[nH]cn1)C(=O)N[C@@H](Cc1ccc(O)cc1)C(=O)N[C@@H](Cc1ccc(O)cc1)C(=O)N[C@@H](CC(N)=O)C(=O)N[C@@H](Cc1c[nH]c2ccccc12)C(=O)N[C@@H](CC(C)C)C(=O)N[C@H](C(=O)N[C@@H](CCCNC(=N)N)C(=O)N[C@@H](CCC(N)=O)C(=O)N[C@@H](CCCNC(=N)N)C(=O)N[C@@H](Cc1ccc(O)cc1)C(N)=O)[C@@H](C)O)C(C)C)[C@@H](C)O
B3: Compound 150 (peptide)
peptide: Isovaleryl-APEK([Ahx-γGlu-C18 diacid])PEEAASPEEIQRYYVSLRHYYNWLTRQRY-NH2
SMILES: CC[C@H](C)[C@H](NC(=O)[C@H](CCC(=O)O)NC(=O)[C@H](CCC(=O)O)NC(=O)[C@@H]1CCCN1C(=O)[C@H](CO)NC(=O)[C@H](C)NC(=O)[C@H](C)NC(=O)[C@H](CCC(=O)O)NC(=O)[C@H](CCC(=O)O)NC(=O)[C@@H]1CCCN1C(=O)[C@H](CCCCNC(=O)CCCCCNC(=O)CC[C@H](NC(=O)CCCCCCCCCCCCCCCCC(=O)O)C(=O)O)NC(=O)[C@H](CCC(=O)O)NC(=O)[C@@H]1CCCN1C(=O)[C@H](C)NC(=O)CC(C)C)C(=O)N[C@@H](CCC(N)=O)C(=O)N[C@@H](CCCNC(=N)N)C(=O)N[C@@H](Cc1ccc(O)cc1)C(=O)N[C@@H](Cc1ccc(O)cc1)C(=O)N[C@H](C(=O)N[C@@H](CO)C(=O)N[C@@H](CC(C)C)C(=O)N[C@@H](CCCNC(=N)N)C(=O)N[C@@H](Cc1c[nH]cn1)C(=O)N[C@@H](Cc1ccc(O)cc1)C(=O)N[C@@H](Cc1ccc(O)cc1)C(=O)N[C@@H](CC(N)=O)C(=O)N[C@@H](Cc1c[nH]c2ccccc12)C(=O)N[C@@H](CC(C)C)C(=O)N[C@H](C(=O)N[C@@H](CCCNC(=N)N)C(=O)N[C@@H](CCC(N)=O)C(=O)N[C@@H](CCCNC(=N)N)C(=O)N[C@@H](Cc1ccc(O)cc1)C(N)=O)[C@@H](C)O)C(C)C
B4: Compound 128 (peptide)
peptide: Isovaleryl-APEK([Ahx-γGlu-C18 diacid])PEEAATPEELQRYYVSLRHYYNWLTRQRY-NH2
SMILES: CC(C)CC(=O)N[C@@H](C)C(=O)N1CCC[C@H]1C(=O)N[C@@H](CCC(=O)O)C(=O)N[C@@H](CCCCNC(=O)CCCCCNC(=O)CC[C@H](NC(=O)CCCCCCCCCCCCCCCCC(=O)O)C(=O)O)C(=O)N1CCC[C@H]1C(=O)N[C@@H](CCC(=O)O)C(=O)N[C@@H](CCC(=O)O)C(=O)N[C@@H](C)C(=O)N[C@@H](C)C(=O)N[C@H](C(=O)N1CCC[C@H]1C(=O)N[C@@H](CCC(=O)O)C(=O)N[C@@H](CCC(=O)O)C(=O)N[C@@H](CC(C)C)C(=O)N[C@@H](CCC(N)=O)C(=O)N[C@@H](CCCNC(=N)N)C(=O)N[C@@H](Cc1ccc(O)cc1)C(=O)N[C@@H](Cc1ccc(O)cc1)C(=O)N[C@H](C(=O)N[C@@H](CO)C(=O)N[C@@H](CC(C)C)C(=O)N[C@@H](CCCNC(=N)N)C(=O)N[C@@H](Cc1c[nH]cn1)C(=O)N[C@@H](Cc1ccc(O)cc1)C(=O)N[C@@H](Cc1ccc(O)cc1)C(=O)N[C@@H](CC(N)=O)C(=O)N[C@@H](Cc1c[nH]c2ccccc12)C(=O)N[C@@H](CC(C)C)C(=O)N[C@H](C(=O)N[C@@H](CCCNC(=N)N)C(=O)N[C@@H](CCC(N)=O)C(=O)N[C@@H](CCCNC(=N)N)C(=O)N[C@@H](Cc1ccc(O)cc1)C(N)=O)[C@@H](C)O)C(C)C)[C@@H](C)O
B5: Compound 118 (peptide)
peptide: Isovaleryl-APEK([Ahx-γGlu-C18 diacid])PPEDAEPEEIQRYYVSLRHYYNWLTRQRY-NH2
SMILES: CC[C@H](C)[C@H](NC(=O)[C@H](CCC(=O)O)NC(=O)[C@H](CCC(=O)O)NC(=O)[C@@H]1CCCN1C(=O)[C@H](CCC(=O)O)NC(=O)[C@H](C)NC(=O)[C@H](CC(=O)O)NC(=O)[C@H](CCC(=O)O)NC(=O)[C@@H]1CCCN1C(=O)[C@@H]1CCCN1C(=O)[C@H](CCCCNC(=O)CCCCCNC(=O)CC[C@H](NC(=O)CCCCCCCCCCCCCCCCC(=O)O)C(=O)O)NC(=O)[C@H](CCC(=O)O)NC(=O)[C@@H]1CCCN1C(=O)[C@H](C)NC(=O)CC(C)C)C(=O)N[C@@H](CCC(N)=O)C(=O)N[C@@H](CCCNC(=N)N)C(=O)N[C@@H](Cc1ccc(O)cc1)C(=O)N[C@@H](Cc1ccc(O)cc1)C(=O)N[C@H](C(=O)N[C@@H](CO)C(=O)N[C@@H](CC(C)C)C(=O)N[C@@H](CCCNC(=N)N)C(=O)N[C@@H](Cc1c[nH]cn1)C(=O)N[C@@H](Cc1ccc(O)cc1)C(=O)N[C@@H](Cc1ccc(O)cc1)C(=O)N[C@@H](CC(N)=O)C(=O)N[C@@H](Cc1c[nH]c2ccccc12)C(=O)N[C@@H](CC(C)C)C(=O)N[C@H](C(=O)N[C@@H](CCCNC(=N)N)C(=O)N[C@@H](CCC(N)=O)C(=O)N[C@@H](CCCNC(=N)N)C(=O)N[C@@H](Cc1ccc(O)cc1)C(N)=O)[C@@H](C)O)C(C)C

For the first experiment, the target named is T1, human NPY1 receptor (human, UniProt P25929 1-384).
T1 sequence (looked up): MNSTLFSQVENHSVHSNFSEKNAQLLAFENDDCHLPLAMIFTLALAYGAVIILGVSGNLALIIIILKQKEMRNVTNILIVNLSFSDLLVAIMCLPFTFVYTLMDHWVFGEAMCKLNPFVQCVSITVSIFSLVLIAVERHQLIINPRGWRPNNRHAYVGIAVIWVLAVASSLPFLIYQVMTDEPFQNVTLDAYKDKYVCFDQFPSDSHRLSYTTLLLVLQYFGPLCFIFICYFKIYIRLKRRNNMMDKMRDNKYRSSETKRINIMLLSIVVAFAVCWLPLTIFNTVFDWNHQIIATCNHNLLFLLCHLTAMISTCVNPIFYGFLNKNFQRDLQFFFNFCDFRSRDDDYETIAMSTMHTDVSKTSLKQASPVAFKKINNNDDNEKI
As to the kind of experiment: cell-based or functional assay.
As for B1, the “EC50, HTRF cAMP Gi assay” value was greater than 5000 nM.

In the case of B2, the “EC50, HTRF cAMP Gi assay” value is greater than 5000 nM.

Turning to B3, the “EC50, HTRF cAMP Gi assay” value is greater than 5000 nM.

As to B4, the “EC50, HTRF cAMP Gi assay” value was greater than 5000 nM.

For B5, the “EC50, HTRF cAMP Gi assay” value is greater than 5000 nM.

In the next experiment the target is T2, human NPY5 receptor (human, UniProt Q15761 1-445).
T2 sequence (looked up): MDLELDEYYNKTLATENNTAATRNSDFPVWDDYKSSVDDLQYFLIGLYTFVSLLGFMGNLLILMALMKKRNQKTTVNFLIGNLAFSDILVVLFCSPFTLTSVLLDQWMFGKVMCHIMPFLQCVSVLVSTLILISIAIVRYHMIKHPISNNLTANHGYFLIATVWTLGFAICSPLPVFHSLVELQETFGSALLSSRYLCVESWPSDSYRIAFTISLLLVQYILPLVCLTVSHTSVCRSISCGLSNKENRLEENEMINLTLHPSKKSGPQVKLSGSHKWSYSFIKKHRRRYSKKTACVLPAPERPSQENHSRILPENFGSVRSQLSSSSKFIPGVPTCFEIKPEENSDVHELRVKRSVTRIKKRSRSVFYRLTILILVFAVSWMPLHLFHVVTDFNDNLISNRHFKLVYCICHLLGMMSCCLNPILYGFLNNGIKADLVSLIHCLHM
The experiment in a line: cell-based or functional assay.
As to B1, the “EC50, HTRF cAMP Gi assay” value was greater than 5000 nM.

Turning to B2, the “EC50, HTRF cAMP Gi assay” value was greater than 5000 nM.

Consider B3, for which the “EC50, HTRF cAMP Gi assay” value is greater than 5000 nM.

With B4, the “EC50, HTRF cAMP Gi assay” value was greater than 5000 nM.

With B5, the “EC50, HTRF cAMP Gi assay” value was greater than 5000 nM.

The target of a further experiment is human NPY4 receptor (human, UniProt P50391 1-375). As to the kind of experiment: cell-based or functional assay.
human NPY4 receptor, sequence (P50391 whole entry): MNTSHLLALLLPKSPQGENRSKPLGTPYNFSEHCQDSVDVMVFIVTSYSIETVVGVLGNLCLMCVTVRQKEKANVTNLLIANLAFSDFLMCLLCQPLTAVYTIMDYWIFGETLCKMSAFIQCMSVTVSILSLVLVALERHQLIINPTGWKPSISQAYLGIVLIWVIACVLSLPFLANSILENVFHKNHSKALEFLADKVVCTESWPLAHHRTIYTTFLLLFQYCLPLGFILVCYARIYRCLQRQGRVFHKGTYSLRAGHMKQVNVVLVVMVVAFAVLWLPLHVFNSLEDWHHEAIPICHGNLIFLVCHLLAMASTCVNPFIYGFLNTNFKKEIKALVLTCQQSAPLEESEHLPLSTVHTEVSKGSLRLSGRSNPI
For B1, the “EC50, HTRF cAMP Gi assay” value is greater than 5000 nM.

Consider B2, for which the “EC50, HTRF cAMP Gi assay” value was greater than 5000 nM.

As to B3, the “EC50, HTRF cAMP Gi assay” value was greater than 5000 nM.

B4: the “EC50, HTRF cAMP Gi assay” value is greater than 5000 nM.

As to B5, the “EC50, HTRF cAMP Gi assay” value is greater than 5000 nM.

A further experiment addresses T3, human NPY2 receptor (human, UniProt P49146 1-381).
T3 sequence (looked up): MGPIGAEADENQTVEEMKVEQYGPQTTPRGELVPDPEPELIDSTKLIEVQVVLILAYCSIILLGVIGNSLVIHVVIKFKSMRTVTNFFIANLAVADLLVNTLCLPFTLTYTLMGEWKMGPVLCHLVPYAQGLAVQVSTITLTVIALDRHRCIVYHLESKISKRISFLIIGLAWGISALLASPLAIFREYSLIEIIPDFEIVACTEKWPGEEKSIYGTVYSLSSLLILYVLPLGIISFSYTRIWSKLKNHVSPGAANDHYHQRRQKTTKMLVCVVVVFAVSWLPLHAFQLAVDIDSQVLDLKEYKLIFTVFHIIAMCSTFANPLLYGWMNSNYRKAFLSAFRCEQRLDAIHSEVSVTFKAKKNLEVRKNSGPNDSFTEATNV
As to the kind of experiment: cell-based or functional assay.
B1: the “EC50, HTRF cAMP Gi assay” value worked out at 0.186 nM.

For B2, the “EC50, HTRF cAMP Gi assay” value turned out to be 0.138 nM.

As to B3, the “EC50, HTRF cAMP Gi assay” value came out at 0.243 nM.

On to B4, for which the “EC50, HTRF cAMP Gi assay” value amounted to 0.344 nM.

On to B5, for which the “EC50, HTRF cAMP Gi assay” value is 0.161 nM.

In the next experiment the target is T3, human NPY2 receptor. As to the kind of experiment: RLB: displacement of 125I-PYY(1-36) from hNPY2R membranes. (Displacement assays read how much labelled ligand stays bound in the presence of the test substance.)
In turn, B1 gave a Ki of 0.95 nM.

B2 showed a Ki of 1.07 nM.

B3 came in with a Ki of 2.18 nM.

B4 came in with an inhibitory constant (Ki) of 2.91 nM.

B5: the inhibitory constant (Ki) was 1 nM.

In general, Ki refers to the equilibrium dissociation constant of an inhibitor or competing ligand from its target.

(Values after US20260015399A1 (Boehringer Ingelheim, published 2026).)
